These results are taken from PMC10021056 (Nature Communications, 2023).

The target in this test is prefusion-stabilized NiV F (NiVop08) (Nipah virus, Malaysian strain, stabilised).

B1: 201805_NiV_PL3_D4 (antibody, V domains shown)
VH: EVQLQQSGPELVKPGASVKMSCKASGYTFTSNVMHWVKQKPGQGLEWIGYINPYNDGTRYNEKFKGKATLTSDKSSSTAYMELSSLTSEDSAVYYCARRFYRGAMDYWGQGTSVTVSA
VL: NIVLHQSPASLAVSLGQRATISCRASESVDTYDNSFMHWYQQKPGQPPKLLIYLASKLESGVPARFSGSGSRTDFTLTIDPVEADDAATYYCQQNYEDPYTFGGGTKLEIK
Take B1: the binding result is “binds”.
